Measurements from patent US20110165078A1 (UNIVERSITY COURT OF THE UNIVERSITY OF ABERDEEN, published 2011).

What was measured:
[1] = molecular target: T1, target peptide-BSA conjugate (…-BSA) (human; bovine, UniProt P02769 25-607, chemically conjugated to bovine serum albumin (BSA) using 3 maleimidoacetic acid N-hydroxysuccinimide (MBS)); test: ELISA on coated peptide-BSA or BSA, detection with HRP anti-human Cκ
T1 construct: Typically on average ~4 peptide molecules per molecule of albumin; also called BSA-target peptide; BSA-peptide 2
T1 sequence (P02769 25-607 limits assumed): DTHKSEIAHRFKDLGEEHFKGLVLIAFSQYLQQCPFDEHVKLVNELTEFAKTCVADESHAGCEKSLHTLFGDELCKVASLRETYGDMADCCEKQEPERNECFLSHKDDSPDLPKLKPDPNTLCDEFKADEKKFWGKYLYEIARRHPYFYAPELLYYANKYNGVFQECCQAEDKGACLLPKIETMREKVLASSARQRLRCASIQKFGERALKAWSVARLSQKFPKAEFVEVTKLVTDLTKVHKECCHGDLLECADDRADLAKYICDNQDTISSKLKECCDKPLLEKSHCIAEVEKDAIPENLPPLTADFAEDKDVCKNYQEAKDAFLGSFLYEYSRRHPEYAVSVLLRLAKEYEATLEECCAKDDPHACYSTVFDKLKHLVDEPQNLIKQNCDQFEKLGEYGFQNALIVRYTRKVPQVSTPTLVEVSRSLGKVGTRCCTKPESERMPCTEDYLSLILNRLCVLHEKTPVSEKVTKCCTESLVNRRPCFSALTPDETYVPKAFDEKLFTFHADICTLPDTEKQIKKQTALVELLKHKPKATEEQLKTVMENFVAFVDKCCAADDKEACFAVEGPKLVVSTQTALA

[2] = molecular target: T2, rat synaptophysin (in rat hepatic stellate cells) (rat, UniProt P07825 1-307); test: Western blot of cell extracts (5 µg/lane) probed with C1-3 scAb
T2 construct: In rat HSC extracts on a Western blot; also called synaptophysin in rat HSCs; rHSCs
T2 sequence (P07825 whole entry): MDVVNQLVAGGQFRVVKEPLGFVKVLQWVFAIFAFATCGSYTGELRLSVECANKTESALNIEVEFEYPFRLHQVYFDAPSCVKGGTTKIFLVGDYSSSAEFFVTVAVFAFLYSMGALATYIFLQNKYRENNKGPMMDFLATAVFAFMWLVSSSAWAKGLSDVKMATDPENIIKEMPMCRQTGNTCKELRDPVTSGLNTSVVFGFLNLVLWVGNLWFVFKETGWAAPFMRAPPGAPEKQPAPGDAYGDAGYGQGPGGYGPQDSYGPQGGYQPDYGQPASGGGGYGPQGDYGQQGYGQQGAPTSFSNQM

fold more scAb bound to peptide-BSA than to BSA alone [1]: ~8 times
binding result [2]: no binding
B1: C1-3 scAb (scFv)
scFv: MAEVQLLESGGGLVQPGGSLRLSCAASGFTFSSYAMSWVRQAPGKGLEWVSTIAASGPSTGYADSVKGRFTISRDNSKNTLYLQMNSLRAEDTAVYYCAKTTAKFDYWGQGTLVTVSSGGGGSGGGGSGGGGSTDIQMTQSPSSLSASVGDRVTITCRASQSISSYLNWYQQKPGKAPKLLIYSASRLQSGVPSRFNGSGSGTDFTLTISSLQPEDFATYYCQQLQRKPTTFGQGTKVEIKRGAAAPSVFIFPPSDEQLKSGTASVVCLLNNFYPREAKVQWKVDNALQSGNSQESVTEQDSKDSTYSLSSTLTLSKADYEKHKVYACEVTHQGLSSPVTKSFNRGESHHHHHH
notes: Single-chain antibody fragment: scFv fused to human C kappa and a hexa-histidine tag, expressed from pIMS147 in E. coli XL-1 blue; also called C1-3 scFv; clone pIMS147 C1-3
